Data set [1] has as its target p53 core domain I195T I195T (UniProt P04637). Kind of data set: FP.
The target of data set [2] is p53 core domain wild-type (UniProt P04637). Description: FP. The following applies: wild-type value quoted for comparison; CDB3 did not affect wild-type DNA binding.

With Gadd45 30-mer DNA, the dissociation constant (Kd) (commonly the free concentration of one partner at which half of the binding sites on the other are occupied at equilibrium, for simple one-to-one binding) came to 1000 nM in data set [1] (after 1 h at 10 C with 100 uM CDB3 peptide); 6000 nM in data set [1] (no peptide, 10 C incubation, 1:1 binding fit); 800 nM in data set [2].

(Values after patent US20050008653.)
